Assay results reported in US20160046725A1.

Experiments:
[1] = target: human Axl receptor on human tumor cells (UniProt P30530); experiment: flow cytometry on SN12C cells treated 24 h with 9G4, labelled with 9G4 isotype control
[2] = target: human Axl receptor on human tumor cells (UniProt P30530); experiment: flow cytometry on SN12C cells, untreated (No Ab), labelled with 9G4 isotype control
[3] = target: human Axl receptor on human tumor cells (UniProt P30530); experiment: cell-based or functional assay
[4] = target: human Axl receptor on human tumor cells (UniProt P30530); experiment: quantitative flow cytometry (Qifikit) on PC3 cells
[5] = target: human Axl receptor on human tumor cells (UniProt P30530); experiment: quantitative flow cytometry (Qifikit) on MDA-MB-231 cells
[6] = target: human Axl receptor on human tumor cells (UniProt P30530); experiment: quantitative flow cytometry (Qifikit) on DU-145 cells
[7] = target: human Axl receptor on human tumor cells (UniProt P30530); experiment: quantitative flow cytometry (Qifikit) on NCI-H226 cells
[8] = target: human Axl receptor on human tumor cells (UniProt P30530); experiment: quantitative flow cytometry (Qifikit) on Calu-1 cells
[9] = target: human Axl receptor on human tumor cells (UniProt P30530); experiment: quantitative flow cytometry (Qifikit) on MDA-MB-435S cells
[10] = target: human Axl receptor on human tumor cells (UniProt P30530); experiment: quantitative flow cytometry (Qifikit) on NCI-H125 cells
[11] = target: human Axl receptor on human tumor cells (UniProt P30530); experiment: quantitative flow cytometry (Qifikit) on A431 cells
[12] = target: human Axl receptor on human tumor cells (UniProt P30530); experiment: quantitative flow cytometry (Qifikit) on SN12C cells
[13] = target: human Axl receptor on human tumor cells (UniProt P30530); experiment: quantitative flow cytometry (Qifikit) on Panc1 cells
[14] = target: human Axl receptor on human tumor cells (UniProt P30530); experiment: quantitative flow cytometry (Qifikit) on MCF7 cells
[15] = target: human Axl receptor on human tumor cells (UniProt P30530); experiment: quantitative flow cytometry (Qifikit) on A172 cells
[16] = target: human Axl receptor on human tumor cells (UniProt P30530); experiment: flow cytometry on SN12C cells, untreated (No Ab), labelled with MAB154

human Axl receptor on human tumor cells, sequence (P30530 26-894 D266N): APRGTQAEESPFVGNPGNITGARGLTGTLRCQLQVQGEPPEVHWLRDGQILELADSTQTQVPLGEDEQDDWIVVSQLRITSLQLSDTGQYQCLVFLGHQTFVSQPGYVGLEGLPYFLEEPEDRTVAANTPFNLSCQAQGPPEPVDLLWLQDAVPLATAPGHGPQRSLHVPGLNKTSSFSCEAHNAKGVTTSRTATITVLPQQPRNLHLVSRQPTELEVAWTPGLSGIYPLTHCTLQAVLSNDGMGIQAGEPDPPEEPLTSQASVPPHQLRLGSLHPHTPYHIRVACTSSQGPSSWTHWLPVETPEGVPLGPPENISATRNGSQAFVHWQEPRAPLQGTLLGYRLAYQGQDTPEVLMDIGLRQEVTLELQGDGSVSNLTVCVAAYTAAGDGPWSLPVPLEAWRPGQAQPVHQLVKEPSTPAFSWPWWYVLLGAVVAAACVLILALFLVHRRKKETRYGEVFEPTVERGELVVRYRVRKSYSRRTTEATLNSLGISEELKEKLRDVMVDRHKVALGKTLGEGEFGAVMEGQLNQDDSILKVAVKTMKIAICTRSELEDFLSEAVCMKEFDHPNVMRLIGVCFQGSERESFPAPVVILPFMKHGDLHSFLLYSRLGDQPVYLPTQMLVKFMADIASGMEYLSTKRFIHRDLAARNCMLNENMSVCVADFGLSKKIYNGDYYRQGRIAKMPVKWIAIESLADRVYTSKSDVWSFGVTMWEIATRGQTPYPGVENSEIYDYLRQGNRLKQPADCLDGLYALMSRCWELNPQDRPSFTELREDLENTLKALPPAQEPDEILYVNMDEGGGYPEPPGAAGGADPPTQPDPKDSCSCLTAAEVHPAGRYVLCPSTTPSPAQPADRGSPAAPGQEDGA

| MFI at T24 h [1] [MFI] | MFI at T24 h [2] [MFI] | % remaining Axl [3] [%] | Δ (MFI No Ab 24 h - MFI Ab 24 h) [3] [MFI] | ABC (Qifikit) [4] [ABC] | ABC (Qifikit) [5] [ABC] | ABC (Qifikit) [6] [ABC] | ABC (Qifikit) [7] [ABC] | ABC (Qifikit) [8] [ABC] | ABC (Qifikit) [9] [ABC] | ABC (Qifikit) [10] [ABC] | ABC (Qifikit) [11] [ABC] | ABC (Qifikit) [12] [ABC] | Antigen binding capacity (Qifikit) [12] [ABC] | ABC (Qifikit) [13] [ABC] | ABC (Qifikit) [14] [ABC] | ABC (Qifikit) [15] [ABC] | MFI at T24 h [16] [MFI] | Substance |
| --- | --- | --- | --- | --- | --- | --- | --- | --- | --- | --- | --- | --- | --- | --- | --- | --- | --- | --- |
| 13 | 11 | 117 | -2 | – | – | – | – | – | – | – | – | – | – | – | – | – | – | 9G4 murine IgG1 isotype control antibody |
| – | – | – | – | 8420 | 61200 | 55300 | 32100 | > 100000 | 17800 | 5540 | 3950 | > 100000 | > 100000 | 36800 | 71 | 52400 | 950 | MAB154 anti-Axl commercial antibody (R and D Systems) |
